Among the data in PMC9537594 (2022) are Kd values, retold here.

Usually Kd stands for the concentration at which binding is half-saturated. Lower therefore signals higher affinity.

To fix the notation:
B1: GST-SEC24C_(196-314)(LCR-FG-LCR) (domain or fragment)
chain: HPGIQTPQRSAPSQASSFTPPASGGPRLPSMTGPLLPGQSFGGPSVSQPNHVSSPPQALPPGTQMTGPLGPLPPMHSPQQPGYQPQQNGSFGPARGPQSNYGGPYPAAPTFGSQPGPPQ
B2: GST-CPSF6_(261-358)(LCR-FG-LCR) (domain or fragment)
chain: SDIIPTTENLYFQGAIAEIPIFGLKAGQTPPRPPLGPPGPPGPPGPPPPGQVLPPPLAGPPNRGDRPPPPVLFPGQPFGQPPLGPLPPGPPPPVPGYGPPPGPPPPQQGPPPPPG
B3: GST-NUP153_(1306-1450)(LCR-FG-LCR) (domain or fragment)
chain: FGTGPSAPSASPAFGANQTPTFGQSQGASQPNPPGFGSISSSTALFPTGSQPAPPTFGTVSSSSQPPVFGQQPSQSAFGSGTTPNSSSAFQFGSSTTNFNFTNNSPSGVFTFGANSSTPAASAQPSGSGGFPFNQSPAAFTVGSN

For this test, the target named is Native HIV-1 cores (mature CA lattice of hexamers and pentamers) (HIV-1).
The molecule B1 came in with a Kd of 810 nM.
Molecule B2 gave a Kd of 890 nM.
B3 yielded a Kd of 310 nM.
